Patent US20220204930A1 (KITE PHARMA, published 2022)
Each block holds one binder with its values, some of them ahead of it.

What was measured:
[1] = biological target: T1, recombinant PSMA (rPSMA) containing a 6x His tag (human, UniProt Q04609 44-750); test: flow cytometry, rPSMA-6xHis + anti-His; synNotch/CAR-payload T cells without myc beads (CAR not induced); donor #3
T1 construct: Soluble staining reagent, detected with an anti-His antibody; also called prostate-specific membrane antigen
Protocol: (§1) Seven days after transduction, T cells transduced as described in example 1 were harvested to determine transduction efficiencies. 1.5×10⁵ T cells were plated in 96 well plates in duplicate. For canonical CAR T cells, T cells were cultured overnight in hTCM (human T cell media), that included of x-vivo 15 (Lonza (Basel, Switzerland)), 5% human serum (Valley Biomedical (Winchester, Va.)), and 1% Glutamax (Gibco). For synNotch T receptor expressing cells, the T cells were cultured in the presence and absence of myc beads overnight to stimulate the synNotch receptor and therebyinduce CAR expression. After overnight culture, CAR expression was measured using recombinant PSMA (rPSMA) containing a 6× His tag (SEQ ID NO: 260). The cells were stained with an anti-His antibody and the stained cells were detected via flow cytometry. Only cells bound by the rPSMA (and anti-His) are detected to measure expression.

[2] = biological target: T1, recombinant PSMA (rPSMA) containing a …; test: flow cytometry, rPSMA-6xHis + anti-His; synNotch/CAR-payload T cells without myc beads (CAR not induced); donor #1
[3] = biological target: T1, recombinant PSMA (rPSMA) containing a …; test: flow cytometry of canonical CAR T cells stained with rPSMA-6xHis and anti-His; donor #1
Protocol: as §1

T1 sequence (Q04609 other isoform, or with tags, fused parts or gaps limits assumed): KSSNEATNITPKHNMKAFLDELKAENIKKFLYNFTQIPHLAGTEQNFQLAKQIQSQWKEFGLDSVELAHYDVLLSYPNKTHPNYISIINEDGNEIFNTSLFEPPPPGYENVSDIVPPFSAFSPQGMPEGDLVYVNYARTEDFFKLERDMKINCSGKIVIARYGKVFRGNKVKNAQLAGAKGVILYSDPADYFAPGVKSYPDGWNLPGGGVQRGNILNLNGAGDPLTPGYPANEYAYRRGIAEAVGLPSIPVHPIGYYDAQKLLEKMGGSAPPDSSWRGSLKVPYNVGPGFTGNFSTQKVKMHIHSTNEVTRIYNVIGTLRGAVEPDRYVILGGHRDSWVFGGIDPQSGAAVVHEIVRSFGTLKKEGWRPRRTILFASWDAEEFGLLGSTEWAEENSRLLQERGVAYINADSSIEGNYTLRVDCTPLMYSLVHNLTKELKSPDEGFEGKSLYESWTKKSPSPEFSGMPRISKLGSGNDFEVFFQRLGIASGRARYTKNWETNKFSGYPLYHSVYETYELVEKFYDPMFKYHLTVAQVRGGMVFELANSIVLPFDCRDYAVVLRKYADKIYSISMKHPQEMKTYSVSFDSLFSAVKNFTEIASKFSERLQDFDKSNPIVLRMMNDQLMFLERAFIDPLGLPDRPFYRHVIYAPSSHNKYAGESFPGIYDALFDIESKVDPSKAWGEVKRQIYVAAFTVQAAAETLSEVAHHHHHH

- % CAR+ (Unstimulated) [1]: 1.4%
B1: anti-PSMA CAR with Ab2 scFv (other)
chain: DIQMTQSPSSLSASVGDRVTVTCRASQNVNTNVAWYQQKPGKAPKVLIYSASYRNSGVPSRFSGSGSGTDFTLTISSVQPEDFATYYCQQYNSYPFTFGQGTKLEIKGSTSGSGKPGSGEGSTKGQVQLVQSGAEVKKPGASVKLSCKASGYTFTTYWMHWVRQAPGQGLEWIGMIHPNSGSTNYAQKFQGRATLTVDTSTSTAYMELSSLRSEDTAVYYCARDPYDYGEDFDVWGQGTTVTVSS
notes: Chimeric antigen receptor on the surface of transduced human T cells, expressed from the GAL4-inducible payload vector; also called construct 202; Ab6 SynNotch/202; not shown: CD8a hinge, CD8a transmembrane, 4-1BB and CD3zeta domains

- % CAR+ (Unstimulated) [2]: 3.2%
- % CAR+ (Unstimulated) [1]: 4.6%
B2: anti-PSMA CAR with Ab3 scFv (other)
chain: EVQLVESGGGLVQPGGSMRLSCAASGFTFSDYYMAWVRQAPGKGLEWVANINYDGTSTYYADSLKGRFTISRDSSKNTLYLQMNSLRAEDTAVYYCARALDGYYGYLDVWGQGTTVTVSSGSTSGSGKPGSGEGSTKGDIQLTQSPSSLSASVGDRVTLTCRASQSISNNLHWYQQKPGKAPKLLIKYVSQSISGIPSRFSGSGLGTDFTLTISSVQPEDFATYYCQQSNSWPYTFGQGTKLEIK
notes: Chimeric antigen receptor on the surface of transduced human T cells; Constructs 103 (constitutive) and 203 (inducible payload) are treated as the same CAR protein; also called construct 103; construct 203; not shown: CD8a hinge, CD8a transmembrane, 4-1BB and CD3zeta domains

- % CAR+ (Unstimulated) [2]: 3.7%
- % CAR+ (Unstimulated) [1]: 6.2%
- % CAR+ [3]: 95.4%
B3: anti-PSMA CAR with Ab1 scFv (other)
chain: DIQLTQSPSSLSASVGDRVTITCRASSSVSHIYWYQQKPGKAPKPWIYRTSNLASGVPSRFSGSGSGTDYTLTISSLQPEDFATYYCQQYHTYPPTFGQGTKLEIKGSTSGSGKPGSGEGSTKGEVQLVESGGGLVQPGGSMRLSCAASGFTFSDYYMAWVRQAPGKGLEWIANINYDGSNTYYADSLKGRFTISRDNSKNTLYLQMNSLRAEDTAVYYCARNWDGYYGYFDVWGQGTTVTVSS
notes: Chimeric antigen receptor on the surface of transduced human T cells; Construct 101 is the constitutive EF1a vector and 201 the GAL4-inducible payload vector; also called Abl; construct 101; not shown: CD8a hinge, CD8a transmembrane, 4-1BB and CD3zeta domains
